Target: (opt)EsTKγ (Eptatretus stouti thread keratin γ, from a codon-optimised gene) (Eptatretus stouti)
Assay: co-assembly by dialysis out of urea, gel separated by ultrafiltration centrifugation and analysed by SDS-PAGE; crudely purified proteins, each 1.0 mg/ml in 8 M urea, 0.02 M NaH2PO4, 0.5 M NaCl, mixed 1:1; gradient dialysis 8 M to 4 M to 2 M to 0 M urea in 2 mM Tris, 1 mM DTT, pH 9, 4°C, 72 h; concentrated in a 10 kDa ultrafiltration tube; gel-like product picked up, diluted and run on SDS-PAGE

- stoichiometry N: 1
Substance: (opt)EsTKα (Eptatretus stouti thread keratin α, from a codon-optimised gene) (natural protein)

From publication PMC9354048
